Results published in PMC8115037, “Paracoccus denitrificans: a genetically tractable model system for studying respiratory complex I” (Scientific Reports, 2021).

Experiments:
Type in all cases: biochemical, Paracoccus denitrificans
Conditions in all cases: FMN, FeS clusters
[1] = substrate: CCCCCCCCCCC1=C(C)C(=O)C(OC)=C(OC)C1=O; experiment: KM, NADH:DQ oxidoreduction by purified soluble enzyme
[2] = substrate: COC1=C(OC)C(=O)C(CC=C(C)C)=C(C)C1=O; experiment: KM, quinone reduction by purified soluble enzyme
purified protein = substrate: COC1=C(OC)C(=O)C(C/C=C(\C)CC/C=C(\C)CC/C=C(\C)CC/C=C(\C)CC/C=C(\C)CC/C=C(\C)CC/C=C(\C)CC/C=C(\C)CC/C=C(\C)CCC=C(C)C)=C(C)C1=O; experiment: purified protein

B1: complex I (NADH:ubiquinone oxidoreductase), Pd-CI (Paracoccus denitrificans PD1222) (protein)
chain 1: MDGDIRKNSYDDGSMDALTGEQSIRNFNINFGPQHPAAHGVLRMVLELDGEIVERADPHIGLLHRGTEKLMESRTYLQNLPYLDRLDYVAPMNQEHAWCLAIERLTGTVIPRRASLIRVLYSEIGRILNHLMGVTTGAMDVGALTPPLWGFEAREELMIFYERACGARLHAAYFRPGGVHQDLPPDLLDDIEEWCERFPKLVDDLDTLLTENRIFKQRLVDIGIVTEADALDWGYTGVMVRGSGLAWDLRRSQPYECYDEFDFQIPVGRNGDCYDRYLCRMAEMRESCKIMQQAVQKLRAEPAGDVLARGKLTPPRRAEMKRDMESLIHHFKLYTEGFKVPAGEVYAAVEAPKGEFGVYLVADGTNKPWRAKLRAPGFAHLQSIDWMSRGHMLADVPAIIATLDIVFGEVDR
chain 2: MMTGLNTAGADRDLATAELNRELQDKGFLLTTTEDIINWARNGSLHWMTFGLACCAVEMMQTSMPRYDLERFGTAPRASPRQSDLMIVAGTLTNKMAPALRKVYDQMPEPRYVISMGSCANGGGYYHYSYSVVRGCDRIVPVDIYVPGCPPTAEALLYGILQLQRRIRRTGTLVR
chain 3: MAEFWASPYGFALSMLLQGLAVIAFVMGSLIFMVYGDRKIWAAVQMRRGPNVVGPWGLLQTFADALKYIVKEIVIPAGADKFVYFLAPFLSMMLALFAFVVIPFDEGWVMANINVGILFIFAASSLEVYGVIMGGWASNSKYPFLASLRSAAQMISYEVSLGLIIIGIIISTGSMNLTAIVEAQRGDYGLLNWYWLPHLPMVVLFFVSALAECNRPPFDLVEAESELVAGFMTEYSSTPYLLFMAGEYIAMYLMCALLSLLFFGGWLSPVPFIADGWWWMVIKMWFWFYMFAMVKAIVPRYRYDQLMRIGWKVFLPLSLGWVVLVAILARYEILGGFWARFAVGG
chain 4: MLNDQDRIFTNLYGMGDRSLAGAKKRGHWDGTAAIIQRGRDKIIDEMKASGLRGRGGAGFPTGMKWSFMPKESDGRPSYLVINADESEPATCKDREIMRHDPHTLIEGALIASFAMGAHAAYIYIRGEFIREREALQAAIDECYDAGLLGRNAAGSGWDFDLYLHHGAGAYICGEETALLESLEGKKGMPRMKPPFPAGAGLYGCPTTVNNVESIAVVPTILRRGAEWFASFGRPNNAGVKLFGLTGHVNTPCVVEEAMSIPMRELIEKHGGGIRGGWKNLKAVIPGGASCPVLTAEQCENAIMDYDGMRDVRSSFGTACMIVMDQSTDVVKAIWRLSKFFKHESCGQCTPCREGTGWMMRVMERLVRGDAEVEEIDMLFDVTKQVEGHTICALGDAAAWPIQGLIRNFREEIEDRIKAKRTGRMGAMAAE
notes: intact purified complex I, His6-tag on Nqo5; with multisubunit complex (14 core Nqo subunits plus PdNUMM, PdNUYM, PdN7BM)
- Km [1]: 169 ± 15 µM
- Km [2]: 124 ± 8 µM

B2: complex I (NADH:ubiquinone oxidoreductase), Pd-CI (Paracoccus denitrificans PD1222) (protein)
chain 1: B1 chain 1
chain 2: B1 chain 2
chain 3: B1 chain 3
notes: purified complex I reconstituted in proteoliposomes, His6-tag on Nqo5; with multisubunit complex (14 core Nqo subunits plus PdNUMM, PdNUYM, PdN7BM)
- Km (purified protein): 1100 ± 200 µM
